Measurements published in US20130064834A1 (published 2013).
One block for each binder: values may come before it.

What was measured:
Human PCSK9-myc-myc-his [1] = target: T1, Human PCSK9-myc-myc-his (human, UniProt Q8NBP7 31-692); assay: cell-based or functional assay
hPCSK9(D374Y)-mmh [2] = target: T2, hPCSK9(D374Y)-mmh (human, UniProt Q8NBP7 31-692); assay: competition ELISA vs EGF-A-hFc, pH 7.2
T2 construct: also called hPCSK(D374Y)-mmh
Protocol: (§1) Briefly, hLDLR-ecto, hLDLR EGF-A-hFc or hLDLR EGF-AB-hFc, each at 2 μg/ml, was coated on a 96-well plate in PBS buffer overnight at 4° C., and nonspecific binding sites blocked with BSA. […] The equilibrated sample solutions were transferred to receptor or receptor fragment coated plates.

[3] = target: T3, mouse PCSK9, myc-myc-his tagged (mouse, UniProt Q80W65 35-694); assay: competition ELISA vs EGF-A-hFc, pH 7.2
T3 construct: also called mPCSK9-mmh; mPCSK9
Protocol: as §1

[4] = target: T4, tagged rhesus monkey (Macaca mulata) PCSK9 (rhesus monkey (Macaca mulata), UniProt A8T666 31-692); assay: competition ELISA vs EGF-A-hFc, pH 7.2
T4 construct: also called mmPCSK9-mmh; mmPCSK9
T4 sequence (A8T666 31-692 limits assumed): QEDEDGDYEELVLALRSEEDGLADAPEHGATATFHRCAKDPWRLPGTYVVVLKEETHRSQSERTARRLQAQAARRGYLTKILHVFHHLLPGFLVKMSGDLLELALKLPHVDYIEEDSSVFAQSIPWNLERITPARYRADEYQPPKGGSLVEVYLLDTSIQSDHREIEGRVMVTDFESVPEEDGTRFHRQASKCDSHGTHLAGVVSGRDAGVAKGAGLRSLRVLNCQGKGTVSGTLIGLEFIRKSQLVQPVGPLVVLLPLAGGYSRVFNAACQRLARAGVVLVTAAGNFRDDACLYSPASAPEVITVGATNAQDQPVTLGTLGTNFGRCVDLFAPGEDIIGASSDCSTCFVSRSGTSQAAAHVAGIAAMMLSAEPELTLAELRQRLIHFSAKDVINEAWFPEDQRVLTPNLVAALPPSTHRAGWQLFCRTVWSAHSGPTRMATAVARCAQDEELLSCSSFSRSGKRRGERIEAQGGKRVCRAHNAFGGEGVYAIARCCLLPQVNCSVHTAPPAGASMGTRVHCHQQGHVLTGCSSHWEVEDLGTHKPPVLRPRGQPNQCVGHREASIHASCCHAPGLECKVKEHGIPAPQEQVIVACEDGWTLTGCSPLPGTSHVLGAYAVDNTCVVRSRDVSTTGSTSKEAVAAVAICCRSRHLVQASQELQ
Protocol: as §1

[5] = target: T5, cynomolgus monkey (Macaca fascicularis) PCSK9, myc-myc-his tagged (cynomolgus monkey (Macaca fascicularis), UniProt A8T662 31-692 (Macaca nemestrina entry), limits assumed); assay: SPR, mAb amine-coupled, 25C, pH 7.4
T5 construct: also called mfPCSK9-mmh; mfPCSK9
T5 sequence (A8T662 31-692 limits assumed): as the sequence (A8T666 31-692 limits assumed) above, with P607A, K639E counted along it
Description: (§2) Briefly, mAbs were immobilized onto BIACORE™ CM5 sensor chips via amine coupling.

hPCSK9(D374Y)-mmh [6] = target: T2, hPCSK9(D374Y)-mmh; assay: SPR, mAb amine-coupled, 25C, pH 7.4
Description: as §2

Human PCSK9-myc-myc-his [7] = target: T1, Human PCSK9-myc-myc-his; assay: SPR, mAb amine-coupled, 25C, pH 7.4
Description: as §2

Human PCSK9-myc-myc-his [8] = target: T1, Human PCSK9-myc-myc-his; assay: competition ELISA vs EGF-AB-hFc, pH 7.2
Protocol: as §1

[9] = target: T4, tagged rhesus monkey (Macaca mulata) …; assay: competition ELISA vs hLDLR-ecto, pH 7.2
Protocol: as §1

hPCSK9(F216L) = target: T6, hPCSK9(F216L) (human, UniProt Q8NBP7 31-692); assay: ELISA, mAb coated, variant 0-5 nM
T6 construct: mmh-tagged variant hPCSK9
Protocol: (§3) Anti-PCSK9 mAbs were coated on a 96-well plate overnight at 4° C.

hPCSK9(A341R) = target: T7, hPCSK9(A341R) (human, UniProt Q8NBP7 31-692); assay: ELISA, mAb coated, variant 0-5 nM
T7 construct: mmh-tagged variant hPCSK9
Protocol: as §3

hPCSK9(E159R) = target: T8, hPCSK9(E159R) (human, UniProt Q8NBP7 31-692); assay: ELISA, mAb coated, variant 0-5 nM
T8 construct: mmh-tagged variant hPCSK9
Protocol: as §3

hPCSK9(D343R) = target: T9, hPCSK9(D343R) (human, UniProt Q8NBP7 31-692); assay: ELISA, mAb coated, variant 0-5 nM
T9 construct: mmh-tagged variant hPCSK9
Protocol: as §3

Human PCSK9-myc-myc-his [10] = target: T1, Human PCSK9-myc-myc-his; assay: ELISA, mAb coated, variant 0-5 nM
Protocol: as §3

hPCSK9(E366K) = target: T10, hPCSK9(E366K) (human, UniProt Q8NBP7 31-692); assay: ELISA, mAb coated, variant 0-5 nM
T10 construct: mmh-tagged variant hPCSK9
Protocol: as §3

hPCSK9(R357H) = target: T11, hPCSK9(R357H) (human, UniProt Q8NBP7 31-692); assay: ELISA, mAb coated, variant 0-5 nM
T11 construct: mmh-tagged variant hPCSK9
Protocol: as §3

hPCSK9(R215H) = target: T12, hPCSK9(R215H) (human, UniProt Q8NBP7 31-692); assay: ELISA, mAb coated, variant 0-5 nM
T12 construct: mmh-tagged variant hPCSK9
Protocol: as §3

hPCSK9(P70A, S147F) = hPCSK9(P70A, S147F) (human, UniProt Q8NBP7 31-692); assay: ELISA, mAb coated, variant 0-5 nM
Protocol: as §3

hPCSK9(S127R) = target: T13, hPCSK9(S127R) (human, UniProt Q8NBP7 31-692); assay: ELISA, mAb coated, variant 0-5 nM
T13 construct: mmh-tagged variant hPCSK9
Protocol: as §3

hPCSK9(D238R) = target: T14, hPCSK9(D238R) (human, UniProt Q8NBP7 31-692); assay: ELISA, mAb coated, variant 0-5 nM
T14 construct: mmh-tagged variant hPCSK9
Protocol: as §3

hPCSK9(S153R) = target: T15, hPCSK9(S153R) (human, UniProt Q8NBP7 31-692); assay: ELISA, mAb coated, variant 0-5 nM
T15 construct: mmh-tagged variant hPCSK9
Protocol: as §3

hPCSK9(E197R) = target: T16, hPCSK9(E197R) (human, UniProt Q8NBP7 31-692); assay: ELISA, mAb coated, variant 0-5 nM
T16 construct: mmh-tagged variant hPCSK9
Protocol: as §3

hPCSK9(S147F) = target: T17, hPCSK9(S147F) (human, UniProt Q8NBP7 31-692); assay: ELISA, mAb coated, variant 0-5 nM
T17 construct: mmh-tagged variant hPCSK9
Protocol: as §3

hPCSK9(P70A) = hPCSK9(P70A) (human, UniProt Q8NBP7 31-692); assay: ELISA, mAb coated, variant 0-5 nM
Protocol: as §3

hPCSK9(V380M) = target: T18, hPCSK9(V380M) (human, UniProt Q8NBP7 31-692); assay: ELISA, mAb coated, variant 0-5 nM
T18 construct: mmh-tagged variant hPCSK9
Protocol: as §3

hPCSK9(D374Y)-mmh [11] = target: T2, hPCSK9(D374Y)-mmh; assay: SPR, mAb captured on anti-human IgG, 25C
Human PCSK9-myc-myc-his [12] = target: T1, Human PCSK9-myc-myc-his; assay: SPR, antigen captured at low density, pH 5.5, 25C
Human PCSK9-myc-myc-his [13] = target: T1, Human PCSK9-myc-myc-his; assay: competition ELISA vs EGF-AB-hFc, pH 5.5
Protocol: as §1

Human PCSK9-myc-myc-his [14] = target: T1, Human PCSK9-myc-myc-his; assay: SPR, antigen captured at high density, pH 5.5, 25C
Human PCSK9-myc-myc-his [15] = target: T1, Human PCSK9-myc-myc-his; assay: competition ELISA vs hLDLR-ecto, pH 5.5
Protocol: as §1

Human PCSK9-myc-myc-his [16] = target: T1, Human PCSK9-myc-myc-his; assay: SPR, antigen captured at low density, pH 7.4, 25C

B1: H1H316P (antibody, V domains shown)
VH: EVQLVESGGGLVQPGGSLRLSCAASGFTFNNYAMNWVRQAPGKGLDWVSTISGSGGTTNYADSVKGRFIISRDSSKHTLYLQMNSLRAEDTAVYYCAKDSNWGNFDLWGRGTLVTVSS
VL: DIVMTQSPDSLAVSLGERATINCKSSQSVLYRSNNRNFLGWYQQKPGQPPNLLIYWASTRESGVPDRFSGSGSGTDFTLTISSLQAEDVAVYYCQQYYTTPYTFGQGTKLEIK
notes: Fully human mAb made in CHO cells; also called mAb316P
- IC50, LDL uptake in HepG2 cells with 50 nM hPCSK9-mmh (Human PCSK9-myc-myc-his [1]): 21.3 nM
- IC50 (hPCSK9(D374Y)-mmh [2]): 0.203 nM
- IC50 [3]: < 0.25 nM
- IC50 [4]: < 0.25 nM
- Kd [5]: 1.42 nM
- T1/2 [5]: 42 min
- Kd (hPCSK9(D374Y)-mmh [6]): 2.49 nM
- T1/2 (hPCSK9(D374Y)-mmh [6]): 15 min
- Kd (Human PCSK9-myc-myc-his [7]): 1.26 nM
- T1/2 (Human PCSK9-myc-myc-his [7]): 36 min
- IC50 (Human PCSK9-myc-myc-his [8]): < 0.125 nM
- IC50 [9]: < 0.25 nM
- OD (hPCSK9(F216L)): > 1.5 od
- OD (hPCSK9(A341R)): > 1.5 od
- OD (hPCSK9(E159R)): > 1.5 od
- OD (hPCSK9(D343R)): > 1.5 od
- OD (Human PCSK9-myc-myc-his [10]): > 1.5 od
- OD (hPCSK9(E366K)): > 1.5 od
- OD (hPCSK9(R357H)): > 1.5 od
- OD (hPCSK9(R215H)): > 1.5 od
- OD (hPCSK9(P70A, S147F)): > 1.5 od
- OD (hPCSK9(S127R)): > 1.5 od
- OD (hPCSK9(D238R)): < 0.7 od
- OD (hPCSK9(S153R)): > 1.5 od
- OD (hPCSK9(E197R)): > 1.5 od
- OD (hPCSK9(S147F)): > 1.5 od
- OD (hPCSK9(P70A)): > 1.5 od
- OD (hPCSK9(V380M)): > 1.5 od
- Kd (hPCSK9(D374Y)-mmh [11]): 1.78 nM
- T1/2 (hPCSK9(D374Y)-mmh [11]): 14 min
- Kd (Human PCSK9-myc-myc-his [12]): 0.188 nM
- T1/2 (Human PCSK9-myc-myc-his [12]): 58 min
- IC50 (Human PCSK9-myc-myc-his [13]): < 0.125 nM
- Kd (Human PCSK9-myc-myc-his [14]): 0.144 nM
- T1/2 (Human PCSK9-myc-myc-his [14]): 83 min
- IC50 (Human PCSK9-myc-myc-his [15]): < 0.125 nM
- Kd (Human PCSK9-myc-myc-his [16]): 0.339 nM
- T1/2 (Human PCSK9-myc-myc-his [16]): 45 min

- IC50, LDL uptake in HepG2 cells with 50 nM hPCSK9-mmh (Human PCSK9-myc-myc-his [1]): 22.1 nM
- IC50 (hPCSK9(D374Y)-mmh [2]): 0.135 nM
- IC50 [3]: > 33 nM
- IC50 [4]: 0.256 nM
- Kd [5]: 2.17 nM
- T1/2 [5]: 31 min
- Kd (hPCSK9(D374Y)-mmh [6]): 1.31 nM
- T1/2 (hPCSK9(D374Y)-mmh [6]): 46 min
- Kd (Human PCSK9-myc-myc-his [7]): 1.1 nM
- T1/2 (Human PCSK9-myc-myc-his [7]): 76 min
- IC50 (Human PCSK9-myc-myc-his [8]): < 0.125 nM
- IC50 [9]: 0.255 nM
- OD (hPCSK9(F216L)): > 1.5 od
- OD (hPCSK9(A341R)): > 1.5 od
- OD (hPCSK9(E159R)): > 1.5 od
- OD (hPCSK9(D343R)): > 1.5 od
- OD (Human PCSK9-myc-myc-his [10]): > 1.5 od
- OD (hPCSK9(E366K)): 0.7 to 1.5 od
- OD (hPCSK9(R357H)): > 1.5 od
- OD (hPCSK9(R215H)): > 1.5 od
- OD (hPCSK9(P70A, S147F)): > 1.5 od
- OD (hPCSK9(S127R)): > 1.5 od
- OD (hPCSK9(D238R)): > 1.5 od
- OD (hPCSK9(S153R)): > 1.5 od
- OD (hPCSK9(E197R)): > 1.5 od
- OD (hPCSK9(S147F)): > 1.5 od
- OD (hPCSK9(P70A)): > 1.5 od
- OD (hPCSK9(V380M)): > 1.5 od
- Kd (hPCSK9(D374Y)-mmh [11]): 1.06 nM
- T1/2 (hPCSK9(D374Y)-mmh [11]): 49 min
- Kd (Human PCSK9-myc-myc-his [12]): 1.38 nM
- T1/2 (Human PCSK9-myc-myc-his [12]): 13 min
- IC50 (Human PCSK9-myc-myc-his [13]): 0.447 nM
- Kd (Human PCSK9-myc-myc-his [14]): 1.18 nM
- T1/2 (Human PCSK9-myc-myc-his [14]): 26 min
- IC50 (Human PCSK9-myc-myc-his [15]): 1.49 nM
- Kd (Human PCSK9-myc-myc-his [16]): 0.31 nM
- T1/2 (Human PCSK9-myc-myc-his [16]): 119 min
B2: H1M300N (antibody, V domains shown)
VH: EMQLVESGGGLVQPGGSLRLSCAASGFTFSSHWMKWVRQAPGKGLEWVANINQDGSEKYYVDSVKGRFTISRDNAKNSLFLQMNSLRAEDTAVYYCARDIVLMVYDMDYYYYGMDVWGQGTTVTVSS
VL: not shown
notes: Fully human version made in CHO cells
